This note sets out measurements from publication PMC11754109 (Nature, 2025).

Data set [1] deals with Fe protein NifH2 of Mo-nitrogenase (Azotobacter vinelandii). Briefly: SEC-MALS.
The data set “SEC-MALS” deals with the molecule itself. The data set can be described thus: SEC-MALS.

In data set [1], “Fe protein NifH2 of Mo-nitrogenase (natural protein)” showed a stoichiometry N (chains per oligomer) of 2.

B1: FeSII protein (Shethna protein II) of Azotobacter vinelandii (natural protein)
chain: MATIYFSSPLMPHNKKVQAVAGKRSTLLGVAQENGVKIPFECQDGNCGSCLVKITHLDGERIKGMLLTDKERNVLKSVGKLPKSEEERAAVRDLPPTYRLACQTIVTDEDLLVEFTGEPGGA
Molecule B1 showed a stoichiometry N (NifH2 dimers per FeSII2 dimer) in data set [1] of 1. Further, the “stoichiometry N” value in the data set “SEC-MALS” stood at 2 chains per oligomer.
